Measurements published in IntAct's records for PubMed 16107882.

B1: Bud site selection protein 14 (Saccharomyces cerevisiae), P27637 (parent)
chain: MSNKEEHVDETSASGVKEVSSIAARHDNGYAPSLITSTSGMDSFQSHALLNDPTLIEDYSDIINNRPTSGSKLTLGNEDSESMGGSVVVTPTSNKSSPFNSKLNILSNAAEKGHDVLRNRDDDKELEEENVEKHMHSNSKRDQRHYKENSSELPDSYDYSDSEFEDNLERRLQEIETDSVDSADKDEVHFSVNNTMNPDVDDFSDGLKYAISEDEDEEENYSDDDDFDRKFQDSGFQGEKDDLEEENDDYQPLSPPRELDPDKLYALYAFNGHDSSHCQLGQDEPCILLNDQDAYWWLVKRITDGKIGFAPAEILETFPERLARLNCWKNENMSSQSVASSDSKDDSISSGNKNQSDAESIIPTPALNGYGKGNKSVSFNDVVGYADRFIDDAIEDTSLDSNDDGGEGNGQSYDDDVDNDKETKVTHRDEYTEAKLNFGKFQDDDTSDVVSDVSFSTSLNTPLNVKKVRRQDNKNESEPKTSSSKDREDDYNANRYVGQEKSEPVDSDYDTDLKKVFEAPRMPFANGMAKSDSQNSLSTIGEFSPSSSEWTNESPSTPIVEESSSIPSSRAIKDISQYIHAKSKIEETTNVENTEGQIQASLGSSGGMANQTDAEQPKEELEKHHSTPEEEKQSTLSLHSSSEEDFYMDEQRAVSSASINSSLSGSRALSNTNMSDPASKPNSLVQHLYAPVFDRMDVLMKQLDEIIRK

Variants of: B1
Settings: with pp12_yeast GLC7, P32598
Sequence of pp12_yeast GLC7, P32598 (P32598 whole entry): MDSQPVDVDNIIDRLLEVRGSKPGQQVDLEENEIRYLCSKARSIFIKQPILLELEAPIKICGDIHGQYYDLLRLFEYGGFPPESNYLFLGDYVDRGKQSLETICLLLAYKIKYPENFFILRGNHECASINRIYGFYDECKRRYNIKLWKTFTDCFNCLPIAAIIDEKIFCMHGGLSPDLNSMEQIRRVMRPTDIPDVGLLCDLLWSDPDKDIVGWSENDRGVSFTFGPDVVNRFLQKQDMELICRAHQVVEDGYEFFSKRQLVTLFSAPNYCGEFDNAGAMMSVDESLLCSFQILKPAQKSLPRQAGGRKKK

effect of a mutation on the interaction | Variant
decreasing interaction | F379A
decreasing interaction | V377A

Variants of: B1
Settings: with bem2_yeast BEM2, P39960
Sequence of bem2_yeast BEM2, P39960 (P39960 whole entry): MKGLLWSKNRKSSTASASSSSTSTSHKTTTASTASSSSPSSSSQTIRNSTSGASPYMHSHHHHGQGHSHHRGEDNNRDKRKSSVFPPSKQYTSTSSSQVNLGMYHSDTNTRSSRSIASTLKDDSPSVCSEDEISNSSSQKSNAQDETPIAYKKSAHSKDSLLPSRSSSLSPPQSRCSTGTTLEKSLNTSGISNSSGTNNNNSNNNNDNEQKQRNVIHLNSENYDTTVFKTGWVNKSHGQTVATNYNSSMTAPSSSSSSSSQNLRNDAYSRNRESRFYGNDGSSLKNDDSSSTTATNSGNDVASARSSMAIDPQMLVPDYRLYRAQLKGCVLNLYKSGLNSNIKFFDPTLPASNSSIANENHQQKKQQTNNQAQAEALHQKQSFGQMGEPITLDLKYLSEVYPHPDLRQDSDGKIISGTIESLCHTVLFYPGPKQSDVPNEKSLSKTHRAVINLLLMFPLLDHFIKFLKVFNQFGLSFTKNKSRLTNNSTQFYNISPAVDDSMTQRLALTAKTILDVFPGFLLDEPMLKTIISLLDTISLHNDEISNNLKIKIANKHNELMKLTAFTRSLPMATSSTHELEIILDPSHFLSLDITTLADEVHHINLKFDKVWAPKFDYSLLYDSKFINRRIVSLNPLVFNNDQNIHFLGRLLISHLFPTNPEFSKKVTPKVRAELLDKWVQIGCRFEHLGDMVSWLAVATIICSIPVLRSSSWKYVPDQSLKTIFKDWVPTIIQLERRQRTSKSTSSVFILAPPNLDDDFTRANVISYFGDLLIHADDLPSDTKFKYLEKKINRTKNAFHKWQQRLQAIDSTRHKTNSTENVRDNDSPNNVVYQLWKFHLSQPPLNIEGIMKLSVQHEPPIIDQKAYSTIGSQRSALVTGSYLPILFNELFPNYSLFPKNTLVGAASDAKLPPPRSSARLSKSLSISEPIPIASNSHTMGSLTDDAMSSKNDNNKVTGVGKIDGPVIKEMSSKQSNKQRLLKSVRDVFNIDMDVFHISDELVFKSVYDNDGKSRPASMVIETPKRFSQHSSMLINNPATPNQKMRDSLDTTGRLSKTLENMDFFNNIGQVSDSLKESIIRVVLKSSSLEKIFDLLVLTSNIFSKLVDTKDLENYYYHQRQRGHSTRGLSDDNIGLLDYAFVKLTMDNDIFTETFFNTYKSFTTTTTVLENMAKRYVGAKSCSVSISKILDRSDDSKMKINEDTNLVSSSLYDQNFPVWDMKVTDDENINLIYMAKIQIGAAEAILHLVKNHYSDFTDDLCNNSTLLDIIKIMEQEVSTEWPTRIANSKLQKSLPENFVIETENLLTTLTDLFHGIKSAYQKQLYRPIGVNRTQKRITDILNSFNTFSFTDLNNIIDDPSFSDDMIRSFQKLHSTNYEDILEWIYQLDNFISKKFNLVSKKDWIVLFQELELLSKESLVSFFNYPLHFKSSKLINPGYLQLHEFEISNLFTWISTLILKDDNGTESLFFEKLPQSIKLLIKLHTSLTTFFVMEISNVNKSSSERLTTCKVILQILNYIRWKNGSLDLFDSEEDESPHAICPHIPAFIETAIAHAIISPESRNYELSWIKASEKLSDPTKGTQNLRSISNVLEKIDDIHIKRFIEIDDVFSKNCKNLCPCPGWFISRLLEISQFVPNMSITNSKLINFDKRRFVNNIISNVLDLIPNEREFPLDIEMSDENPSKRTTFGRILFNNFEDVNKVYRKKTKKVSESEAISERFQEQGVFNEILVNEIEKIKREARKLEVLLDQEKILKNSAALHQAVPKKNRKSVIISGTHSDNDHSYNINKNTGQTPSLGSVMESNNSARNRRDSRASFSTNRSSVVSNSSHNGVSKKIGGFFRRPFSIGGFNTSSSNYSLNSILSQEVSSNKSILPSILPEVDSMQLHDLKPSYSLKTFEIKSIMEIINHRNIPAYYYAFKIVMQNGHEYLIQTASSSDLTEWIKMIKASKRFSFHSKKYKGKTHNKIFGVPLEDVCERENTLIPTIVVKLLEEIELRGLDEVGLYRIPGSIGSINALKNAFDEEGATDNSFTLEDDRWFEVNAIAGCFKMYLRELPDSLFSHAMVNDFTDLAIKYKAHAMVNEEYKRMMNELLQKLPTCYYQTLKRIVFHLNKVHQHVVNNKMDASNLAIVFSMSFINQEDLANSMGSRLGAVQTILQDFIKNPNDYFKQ

effect of a mutation on the interaction | Variant
decreasing interaction | F379A
